Reference: patent US20210063414A1, “METHODS FOR PREVENTING AND/OR TREATING BONE LOSS CONDITIONS BY MODULATING IRISIN” (Dana-Farber Cancer Institute, Inc., priority 2018, published 2021)

Tests used:
Test in all cases: Crosslinking/co-immunoprecipitation/mass spectrometry (TMT quantitative proteomics) to identify irisin receptors
Type in all cases: binding
[1] = target: T1, MLO-Y4 cell surface proteins (Mus musculus, UniProt Q9Z138); conditions: co-precipitated protein Ror2 (ROR2_MOUSE)
T1 construct: endogenous in cells; host or cells: MLO-Y4
T1 sequence (Q9Z138 34-944): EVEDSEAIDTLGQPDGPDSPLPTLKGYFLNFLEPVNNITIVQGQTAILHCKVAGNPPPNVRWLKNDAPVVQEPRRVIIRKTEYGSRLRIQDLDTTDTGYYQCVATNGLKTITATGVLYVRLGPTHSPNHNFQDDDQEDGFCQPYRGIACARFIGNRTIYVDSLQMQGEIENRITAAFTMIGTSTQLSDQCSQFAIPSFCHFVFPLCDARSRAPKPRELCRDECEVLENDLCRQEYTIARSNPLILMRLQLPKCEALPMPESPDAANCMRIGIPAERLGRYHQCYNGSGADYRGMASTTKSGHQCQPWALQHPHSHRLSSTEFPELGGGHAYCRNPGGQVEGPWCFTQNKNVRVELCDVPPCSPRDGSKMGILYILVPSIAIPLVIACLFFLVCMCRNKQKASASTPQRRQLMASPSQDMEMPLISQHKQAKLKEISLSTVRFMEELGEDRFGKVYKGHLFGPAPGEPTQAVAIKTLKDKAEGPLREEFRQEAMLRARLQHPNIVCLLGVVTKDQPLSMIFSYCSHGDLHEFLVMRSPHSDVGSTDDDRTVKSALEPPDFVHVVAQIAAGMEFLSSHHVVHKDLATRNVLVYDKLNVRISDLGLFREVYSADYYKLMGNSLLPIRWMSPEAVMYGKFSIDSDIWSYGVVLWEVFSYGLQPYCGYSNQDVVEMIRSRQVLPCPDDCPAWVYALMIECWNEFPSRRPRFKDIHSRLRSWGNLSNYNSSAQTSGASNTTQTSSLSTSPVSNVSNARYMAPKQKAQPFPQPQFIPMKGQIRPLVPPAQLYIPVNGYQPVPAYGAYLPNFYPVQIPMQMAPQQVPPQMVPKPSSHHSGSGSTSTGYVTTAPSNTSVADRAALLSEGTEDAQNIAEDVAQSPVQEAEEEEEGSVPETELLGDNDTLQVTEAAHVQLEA
Outline: (§1)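 Relative protein abundance came from 6-plex TMT MS3 quantitation on an Orbitrap Fusion Lumos, after in-gel trypsin digestion of Coomassie-stained SDS-PAGE lanes. Input was a Ni-NTA pulldown (250 mM imidazole elution) of lysates from murine MLO-Y4 cells. These cells were treated on ice with His-tagged irisin or adipsin (10 nM, 20 min) in serum-free medium, then crosslinked with 1.5 mM DTSSP for 30 min.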

[2] = target: T2, MLO-Y4 cell surface proteins (Mus musculus, UniProt Q8K221); conditions: co-precipitated protein Arfip2 (ARFP2_MOUSE)
T2 construct: endogenous in cells; host or cells: MLO-Y4
T2 sequence (Q8K221 1-341): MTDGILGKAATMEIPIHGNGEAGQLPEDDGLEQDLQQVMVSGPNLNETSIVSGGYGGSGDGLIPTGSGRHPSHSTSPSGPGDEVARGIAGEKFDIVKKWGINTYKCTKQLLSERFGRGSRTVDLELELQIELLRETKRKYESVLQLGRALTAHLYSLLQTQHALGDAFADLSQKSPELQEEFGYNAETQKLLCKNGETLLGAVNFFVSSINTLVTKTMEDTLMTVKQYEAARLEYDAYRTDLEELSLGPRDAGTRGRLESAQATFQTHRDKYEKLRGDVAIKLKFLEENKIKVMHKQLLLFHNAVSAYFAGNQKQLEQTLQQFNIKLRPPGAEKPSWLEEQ
Outline: as §1

[3] = target: T3, MLO-Y4 cell surface proteins (Mus musculus, UniProt Q8VCI5); conditions: co-precipitated protein Pex19 (PEX19_MOUSE)
T3 construct: endogenous in cells; host or cells: MLO-Y4
T3 sequence (Q8VCI5 1-299): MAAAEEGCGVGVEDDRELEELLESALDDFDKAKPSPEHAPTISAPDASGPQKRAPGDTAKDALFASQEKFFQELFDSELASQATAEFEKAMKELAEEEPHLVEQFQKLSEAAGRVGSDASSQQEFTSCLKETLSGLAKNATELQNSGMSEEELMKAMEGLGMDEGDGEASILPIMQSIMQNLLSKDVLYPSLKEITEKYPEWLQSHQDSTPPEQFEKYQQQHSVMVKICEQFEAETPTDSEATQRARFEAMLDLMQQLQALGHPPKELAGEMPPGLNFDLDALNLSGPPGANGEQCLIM
Outline: as §1

[4] = target: T4, MLO-Y4 cell surface proteins (Mus musculus, UniProt P61161); conditions: co-precipitated protein Actr2 (ARP2_MOUSE)
T4 construct: endogenous in cells; host or cells: MLO-Y4
Outline: as §1

[5] = target: T5, MLO-Y4 cell surface proteins (Mus musculus, UniProt Q99LC5); conditions: co-precipitated protein Etfa (ETFA_MOUSE)
T5 construct: endogenous in cells; host or cells: MLO-Y4
T5 sequence (Q99LC5 20-333): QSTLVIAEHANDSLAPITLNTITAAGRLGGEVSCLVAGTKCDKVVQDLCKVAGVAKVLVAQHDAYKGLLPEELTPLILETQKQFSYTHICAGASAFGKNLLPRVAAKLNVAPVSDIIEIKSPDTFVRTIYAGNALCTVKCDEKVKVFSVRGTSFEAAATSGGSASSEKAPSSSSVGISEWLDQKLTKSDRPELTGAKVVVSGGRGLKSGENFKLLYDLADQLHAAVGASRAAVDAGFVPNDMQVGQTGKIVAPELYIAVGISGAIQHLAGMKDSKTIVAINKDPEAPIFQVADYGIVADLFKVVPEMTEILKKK
Outline: as §1

In the case of adipsin, the TMT signal-to-noise ratio [1] is reported as 67.6684, the TMT signal-to-noise ratio [2] is reported as 1092.57 and the TMT signal-to-noise ratio [3] is reported as 60.4801. For the same substance, the TMT signal-to-noise ratio [4] was 153.626 and the TMT signal-to-noise ratio [5] was 80.1458.
